In publication PMC4358365, “Conserved mechanisms of microtubule-stimulated ADP release, ATP binding, and force generation in transport kinesins” (eLife, 2014):
Each block holds one molecule with its values, some of them ahead of it.

Biological target: paclitaxel-stabilised microtubule polymerised from bovine αβ-tubulin (bovine) (UniProt Q6B856)
UniProt Q6B856, sequence (Q6B856 whole entry, looked up): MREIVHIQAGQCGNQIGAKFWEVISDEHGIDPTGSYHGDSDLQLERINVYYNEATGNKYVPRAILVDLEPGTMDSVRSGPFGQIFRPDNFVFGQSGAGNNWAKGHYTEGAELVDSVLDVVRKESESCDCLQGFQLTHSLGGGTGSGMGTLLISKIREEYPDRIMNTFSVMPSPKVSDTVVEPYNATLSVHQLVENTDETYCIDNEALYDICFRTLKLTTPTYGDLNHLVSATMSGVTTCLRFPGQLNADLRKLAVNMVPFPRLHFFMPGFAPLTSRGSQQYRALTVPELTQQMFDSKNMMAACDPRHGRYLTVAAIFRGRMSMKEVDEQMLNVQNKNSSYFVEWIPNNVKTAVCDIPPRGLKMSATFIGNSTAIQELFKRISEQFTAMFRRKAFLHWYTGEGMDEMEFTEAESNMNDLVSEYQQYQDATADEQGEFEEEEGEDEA

K (0.5 MT) of the steady-state MT-activated ATPase (10 nM motor domain, paclitaxel-stabilised MTs, 20°C): 12.7 µM
Molecule: human kinesin-1 (Kin1) motor domain construct (Kif5A, residues 1–340) (from UniProt Q12840 1-340) (domain or fragment)

K (0.5 MT) of the steady-state MT-activated ATPase (10 nM motor domain, paclitaxel-stabilised MTs, 20°C): 0.0537 µM
B1: human kinesin-3 (Kin3) motor domain construct (Kif1A, residues 1–361) (domain or fragment)
chain: MAGASVKVAVRVRPFNSREMSRDSKCIIQMSGSTTTIVNPKQPKETPKSFSFDYSYWSHTSPEDINYASQKQVYRDIGEEMLQHAFEGYNVCIFAYGQTGAGKSYTMMGKQEKDQQGIIPQLCEDLFSRINDTTNDNMSYSVEVSYMEIYCERVRDLLNPKNKGNLRVREHPLLGPYVEDLSKLAVTSYNDIQDLMDSGNKARTVAATNMNETSSRSHAVFNIIFTQKRHDAETNITTEKVSKISLVDLAGSERADSTGAKGTRLKEGANINKSLTTLGKVISALAEMDSGPNKNKKKKKTDFIPYRDSVLTWLLRENLGGNSRTAMVAALSPADINYDETLSTLRYADRAKQIRCNAVIN
